Experimental data published in patent US7364741B1, “Peptides of human Papilloma virus for use in human T cell response inducing compositions” (priority 1992, dated 2008).

Experiments:
[1] = target: T1, HLA-A2.1 (Homo sapiens, UniProt P04439, D140Y/D185E/D98H/E176V/E277Q/G131W/G231S/I119V/I121R/I166T/I218V/L300P/L318F/N151K/N90K/P208A/P217A/Q86G/Q94H/R138H/R169H/T345S); format: cell-based; settings: HPV16 peptides, 200 μg/ml peptide, 16 hours, 174CEM.T2 cells
T1 construct: endogenous in cells; host or cells: 174CEM.T2
Protocol: Of all peptides a dilution of 1 mg/ml in 0.9% NaCl was made.
174CEM.T2 cells were cultured in Iscovel's modified Dulbecco's medium (Biochrom KG Seromed Berlin, Germany: F0465) supplemented with 100 IU/ml penicillin (Biocades Pharma, Leiderdorp, The Netherlands), 100 μg/ml kanamycin (Sigma St. Louis, USA:K-0254), 2 mM glutamine (ICN Biomedicals Inc. Costa Mesa, Calif., USA:15-801-55) and 10% fetal calf serum (FCS, Hyclone Laboratories Inc. Logan, Utah, USA:A-1115-L). Cells were cultured at a density of 2.5×10^5/ml during 3 days at 37° C., 5% CO2 in humified air.
174CEM.T2 cells were washed twice in culture medium without FCS and put in serum-free culture medium to a density of 2×10^6 cells/ml. Of this suspension 40 μl was put into a V bottomed 96 well plate (Greiner GmbH, Frickenhausen, Germany: 651101) together with 10 μl of the individual peptide dilutions (of 1 mg/ml). The end concentration is 200 μg/ml peptide with 8×10^4 174CEM.T2 cells. This solution was gently agitated for 3 minutes after which an incubation time of 16 hours at 37° C., 5% CO2 in humified air took place. Then cells were washed once with 100 μl 0.9% NaCl, 0.5% bovine serum albumin (Sigma St. Louis, USA: A-7409), 0.02% NaN3 (Merck Darmstadt, Germany:822335). After a centrifuge round of 1200 rpm the pellet was resuspended in 50 μl of saturating amounts of HLA-A2.1 specific mouse monoclonal antibody BB7.2 for 30 minutes at 4° C. Then cells were washed twice and incubated for 30 minutes with F(ab)2 fragments of goat anti-mouse IgG that had been conjugated with […] (Tago Inc Burlingame, Calif., USA: 4350) in a dilution of 1:40 and a total volume of 25 μl.
After the last incubation, cells were washed twice and fluorescence was measured at 488 nanometer on a FACScan flow-cytometer (Becton Dickinson, Franklin Lakes, N.J., USA).
The 174CEM.T2 cell line expresses “empty” and unstable HLA-A2.1 molecules that can be stabilized when a peptide is binding to the peptide presenting groove of these molecules. […] This leads to an increase in cell surface expression of the HLA-A2.1 molecule.
With background fluorescence level (without adding peptides) set on a Fluorescence Index level of 0, binding of a peptide was regarded positive when the level of fluorescence was ≧0.5.

[2] = system: MLDLQPETT-sensitized T2 cells; test: In vitro induction of primary CTL response and cytotoxicity assay on peptide-sensitized T2 cells; format: cell-based, human; settings: PBL of HLA-A2.1 donor stimulated with 80 μg/ml peptide; cytotoxicity assay on day 49; background: T2 with irrelevant peptide ATELQTTIH
Protocol: The expression of HLA-A2.1 on 174CEM.T2 cells (T2) is increased by incubating T2 cells in medium containing relevant peptide. T2 cells will present the relevant peptide bound to HLA-A2.1 in high amount and therefore are good antigen presenting cells (APC). In the response inducing method described below the T2 cell line is used as APC and post-Ficoll mononuclear cells are used as responder cells.
T2 cells in a concentration of 2×10^6 cells per ml were incubated for 13 h at 37° C. in a T 25 flask (Becton Dickinson, Falcon, Plymouth Engeland cat.nr. 3013) in serum-free IMDM (=Iscoves Modified Dulbecco's Medium: Biochrom KG, Seromed Berlin, Germany, cat.nr. F0465) with glutamine (2 mM, ICN Biochemicals Inc., Costa Meisa, USA, cat.nr. 15-801-55), antibiotics (100 IU/ml penicilline (Brocades Pharma, Leiderdorp, The Netherlands, 100 μg/ml kanamycine (Sigma, St. Louis, USA, K-0245)) and the selected peptide […] (=JWK3; SEQ ID NO:15) in a concentration of 80 μg/ml.
These incubated T2 cells were spun down and subsequently treated in a density of 20×10^6 cells/ml with Mitomycine C (50 μg/ml) in serum-free RPMI (Gibco Paislan, Scotland, cat.nr. 041-02409) medium for 1 h at 37° C. Hereafter the T2 cells were washed three times in RPMI. […]

Question: For “MLDLQPETT [HPV16 peptide 13, residues 12-20 of HPV16 protein E7]”, which “MF (mean HLA-A2.1 fluorescence)” value [1] is on record?
Answer: 217.6

Question: What about the “FI (Fluorescence Index)” value ([1]; background set on 0, binding positive when ≧0.5) of the same sequence?
Answer: 2.3

Question: And the “specificity of killing by peptide-induced bulk CTL culture” value [2]?
Answer: seemed to be specific for killing MLDLQPETT (SEQ ID NO:15)-sensitized T2 cells
